# Measured values from publication PMC12604781 (PLOS Pathogens, 2025).
# pKd: −log10 of the molar value.
# Target: SUMO-PRV peptide AB (pseudorabies virus (PRV))
# Assay: ITC
substance,measurement,value
"pcGAS^CT (C-terminus, catalytic domain of porcine cGAS) (domain or fragment)",pKd,5.53
